No end group written: not given here.
T1: HBD wt peptide (hepcidin binding domain of ferroportin with two arginines at each end)
T1 construct: Synthetic peptide; also called I-HBD (when immobilized on agarose beads or 96-well plates); HBD-beads
T1 peptide: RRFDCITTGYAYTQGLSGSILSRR


Tests used:
[1] = target: T1, HBD wt peptide (hepcidin binding domain …); test: competition with sub saturating ^125I-hepcidin (0.6 ug/ml) for bead-immobilized HBD (I-HBD), 18 h at 37 C, gamma counting (FIG. 2B)
Procedure: FIGS. 2A-C illustrates that the binding of ¹²⁵I-hepcidin to HBD is specific and temperature dependent. In FIG. 2A peptides (HBD, scrambled-HBD or mutant (C326Y HBD) were conjugated to beads and ¹²⁵I-hepcidin was added to the bead-immobilized peptides (I-HBD) for 18 hours at 37° C. (black bars) or 4° C. (grey bars). The beads were washed and the amount of ¹²⁵I-hepcidin bound to the I-HBD was determined. In FIG. 2B a sub saturating concentration of ¹²⁵I-hepcidin (0.6 μg/ml) was incubated with I-HBD for 18 hours at 37° C. in the presence or absence of known concentrations of either hepcidin 25 (Hep 25-open circles) or hepcidin 25 synthesized with a tyrosine substitution at position M21 (Y-Hep 25) and the amount of radioactivity bound to the I-HBD determined. In FIG. 2C sub saturating levels of ¹²⁵I-hepcidin were incubated with I-HBD at different temperatures.
HBD peptides were immobilized by covalently attaching them to agarose beads. Immobilization was performed using AminoLink Plus Immobilization Kit (Pierce) following the manufacturer's instructions. 1.0 mg of HBD peptide was used per 2.0 ml of AminoLink beads. To measure hepcidin concentrations in biological fluids, samples were mixed with a defined concentration of ¹²⁵I-hepcidin and then added to HBD conjugated beads. […] The fluid was removed and the radioactivity bound to beads was determined by gamma counting (Perkin/Elmer).

[2] = target: T1, HBD wt peptide (hepcidin binding domain …); test: binding to HBD, data not shown

Row | Binder | apparent K [1] | binding result [2]
1 | DTHFPICIFCCGCCHRSKCGMCCKT (peptide, UniProt P81172 60-84, looked up, ends and bridges not checked; also: native intramolecular disulfides, pairing not given here, mature; Synthetic peptide; also called Hep 25; Hep25) [hepcidin (hepcidin 25, native non-radioactive hepcidin)] | ~200 nM | 
2 | ICIFCCGCCHRSKCGMCCKT (ends and bridges not checked; also: native intramolecular disulfides, pairing not given here) [Hep20 (hepcidin 20, hepcidin lacking the five amino terminal amino acids)] |  | no binding

Reference: patent publication US20100292147A1 (UNIVERSITY OF UTAH RESEARCH FOUNDATION, published 2010)
